According to doi:10.1101/2025.07.11.664294 (2025):
Bridges are numbered along the chain shown (N, C = ends).

Molecular target: Neuropilin-1 (NRP-1) 22-644 (Homo sapiens, UniProt O14786)
Assay: SPR

Chain of Neuropilin-1 (NRP-1) 22-644 (O14786 22-644): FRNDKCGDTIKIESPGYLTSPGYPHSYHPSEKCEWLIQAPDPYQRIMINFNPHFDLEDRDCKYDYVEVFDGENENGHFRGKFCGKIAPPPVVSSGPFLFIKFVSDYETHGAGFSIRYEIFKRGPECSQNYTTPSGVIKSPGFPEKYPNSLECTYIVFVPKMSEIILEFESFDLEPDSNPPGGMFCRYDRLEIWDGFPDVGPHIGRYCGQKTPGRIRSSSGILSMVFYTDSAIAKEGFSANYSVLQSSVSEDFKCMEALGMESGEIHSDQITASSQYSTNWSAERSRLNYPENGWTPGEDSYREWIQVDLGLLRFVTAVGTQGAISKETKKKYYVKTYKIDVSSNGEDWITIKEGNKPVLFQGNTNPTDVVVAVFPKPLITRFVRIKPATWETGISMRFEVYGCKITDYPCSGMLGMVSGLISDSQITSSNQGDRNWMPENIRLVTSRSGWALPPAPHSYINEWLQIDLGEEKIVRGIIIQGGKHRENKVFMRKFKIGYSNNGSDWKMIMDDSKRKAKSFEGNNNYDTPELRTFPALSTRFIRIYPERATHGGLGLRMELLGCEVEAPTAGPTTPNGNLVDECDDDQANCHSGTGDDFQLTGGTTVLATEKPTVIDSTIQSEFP

B1: P78 (Ctx fragment) 27-34 (peptide)
chain: Ac-KCYGPQCL-NH2
modifications: disulfide 2-7
SMILES: CC(=O)N[C@@H](CCCCN)C(=O)N[C@H]1CSSC[C@@H](C(=O)N[C@@H](CC(C)C)C(N)=O)NC(=O)[C@H](CCC(N)=O)NC(=O)[C@@H]2CCCN2C(=O)CNC(=O)[C@H](Cc2ccc(O)cc2)NC1=O
- Kd: 267 µM
